Test results: patent US20230250438

Biological target: Transferrin receptor (TfR) (Mus musculus) (UniProt Q62351)
Experiment: pulldown
Settings: B = Bn-dU, unit not given

Chain of Transferrin receptor (TfR) (Mus musculus) (Q62351 89-763): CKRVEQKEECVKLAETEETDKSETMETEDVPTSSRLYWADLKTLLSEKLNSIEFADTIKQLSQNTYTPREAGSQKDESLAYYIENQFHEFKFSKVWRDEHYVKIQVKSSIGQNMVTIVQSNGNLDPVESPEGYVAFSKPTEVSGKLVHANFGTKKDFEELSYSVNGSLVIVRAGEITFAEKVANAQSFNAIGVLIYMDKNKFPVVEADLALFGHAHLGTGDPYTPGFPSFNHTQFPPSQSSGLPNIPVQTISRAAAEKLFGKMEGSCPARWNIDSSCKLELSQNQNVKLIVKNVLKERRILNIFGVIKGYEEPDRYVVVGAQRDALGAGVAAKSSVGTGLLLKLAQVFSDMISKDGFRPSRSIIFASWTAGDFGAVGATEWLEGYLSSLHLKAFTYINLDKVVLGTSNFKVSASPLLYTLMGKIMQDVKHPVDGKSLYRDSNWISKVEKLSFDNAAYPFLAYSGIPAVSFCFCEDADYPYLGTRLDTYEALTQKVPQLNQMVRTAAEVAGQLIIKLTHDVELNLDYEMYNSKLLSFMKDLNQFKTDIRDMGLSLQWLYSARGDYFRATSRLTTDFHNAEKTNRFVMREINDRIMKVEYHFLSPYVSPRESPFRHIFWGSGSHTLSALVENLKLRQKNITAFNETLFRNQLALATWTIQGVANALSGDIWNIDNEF

With “GAATTCAAAAGTGTCGGTGATTTGCCTCGTCGCTCCAATGT [CMe 2]” the Kd (2'-OMe at C15 [Bn-dU: 4,5,12,14,18,21,22,23,27,30,34,39,41, 2'-OMe: 15], SB18, 5 mM MgCl2, 37 C) was 11.4.
In the case of “GAATTCAAAAGTGTCGGTGATTTGCCTCGTCGCTCCAATGT [CMe 3]”, the Kd (2'-OMe at C25 [Bn-dU: 4,5,12,14,18,21,22,23,27,30,34,39,41, 2'-OMe: 25], SB18, 5 mM MgCl2, 37 C) is reported as 11.1.
For “GAATTCAAAAGTGTCGGTGATTTGCCTCGTCGCTCCAATGT [CMe 4]”, the Kd (2'-OMe at C26 [Bn-dU: 4,5,12,14,18,21,22,23,27,30,34,39,41, 2'-OMe: 26], SB18, 5 mM MgCl2, 37 C) was 6.94.
For “GAATTCAAAAGTGTCGGTGATTTGCCTCGTCGCTCCAATGT [CMe 7]”, the Kd (2'-OMe at C33 [Bn-dU at 4,5,12,14,18,21,22,23,27,30,34,39,41, 2'-OMe at C33], Table 11 ratio 3.36 (improved)) was 0.363.
“GAATTCAAAAGTGTCGGTGATTTGCCTCGTCGCTCCAATGT [CMe 8]” was tested, and the Kd (2'-OMe at C35 [Bn-dU at 4,5,12,14,18,21,22,23,27,30,34,39,41, 2'-OMe at C35], SB18, 5 mM MgCl2, 37 C) was 8.46.
Work on “GAATTCAAAAGTGTCGGTGATTTGCCTCGTCGCTCCAATGT [CMe 9]” yielded a Kd (2'-OMe at C36 [Bn-dU at 4,5,12,14,18,21,22,23,27,30,34,39,41, 2'-OMe at C36], SB18, 5 mM MgCl2, 37 C) of 7.66.
Sequence “GAATTCAAAAGTGTCGGTGATTTGCCTCGTCGCTCCAATGT [GMe 2]” has a Kd (2'-OMe at G11 [Bn-dU: 4,5,12,14,18,21,22,23,27,30,34,39,41, 2'-OMe-G: 11], SB18, 5 mM MgCl2, 37 C) of 9.67.
“GAATTCAAAAGTGTCGGTGATTTGCCTCGTCGCTCCAATGT [GMe 4]” showed a Kd (2'-OMe at G16 [Bn-dU: 4,5,12,14,18,21,22,23,27,30,34,39,41, 2'-OMe: 16], SB18, 5 mM MgCl2, 37 C) of 6.33.
Work on “GAATTCAAAAGTGTCGGTGATTTGCCTCGTCGCTCCAATGT [GMe 8]” yielded a Kd (2'-OMe at G29 [Bn-dU: 4,5,12,14,18,21,22,23,27,30,34,39,41, 2'-OMe: 29], SB18, 5 mM MgCl2, 37 C) of 5.39.
In the case of “GAATTCAAAAGTGTCGGTGATTTGCCTCGTCGCTCCAATGU [UMe 13]”, the Kd (2'-OMe-U at 41 [Bn-dU: 4,5,12,14,18,21,22,23,27,30,34,39, 2'-OMe-U: 41], SB18, 5 mM MgCl2, 37 C) is reported as 22.8.
In the case of “GAATTCAAAAGTGTCGGTGATTTGCCTCGTCGCTCCAAUGT [UMe 12]”, the Kd (2'-OMe-U at 39 [Bn-dU: 4,5,12,14,18,21,22,23,27,30,34,41, 2'-OMe-U: 39], SB18, 5 mM MgCl2, 37 C) is reported as 28.
“GAATTCAAAAGTGTCGGTGATTTGCCTCGTCGCUCCAATGT [UMe 11]” gave a Kd (2'-OMe-U at 34 [Bn-dU: 4,5,12,14,18,21,22,23,27,30,39,41, 2'-OMe-U: 34], SB18, 5 mM MgCl2, 37 C) of 17.8.
“GAATTCAAAAGTGTCGGTGATTTGCCTCGUCGCTCCAATGT [UMe 10]” gave a Kd (2'-OMe-U at 30 [Bn-dU: 4,5,12,14,18,21,22,23,27,34,39,41, 2'-OMe-U: 30], SB18, 5 mM MgCl2, 37 C) of 25.2.
“GAATTCAAAAGTGTCGGTGATTTGCCUCGTCGCTCCAATGT [UMe 9]” gave a Kd (2'-OMe-U at 27 [Bn-dU: 4,5,12,14,18,21,22,23,30,34,39,41, 2'-OMe-U: 27], SB18, 5 mM MgCl2, 37 C) of 18.3.
Sequence “GAATTCAAAAGTGTCGGTGATUTGCCTCGTCGCTCCAATGT [UMe 7]” has a Kd (2'-OMe-U at 22 [Bn-dU: 4,5,12,14,18,21,23,27,30,34,39,41, 2'-OMe-U: 22], Table 11 ratio 2.51 (improved)) of 1.84.
In the case of “GAATTCAAAAGTGUCGGTGATTTGCCTCGTCGCTCCAATGT [UMe 4]”, the Kd (2'-OMe-U at 14 [Bn-dU: 4,5,12,18,21,22,23,27,30,34,39,41, 2'-OMe-U: 14], Table 10 ratio 0.17) is reported as 32.4.
In the case of “GAATUCAAAAGTGTCGGTGATTTGCCTCGTCGCTCCAATGT [UMe 2]”, the Kd (2'-OMe-U at 5 [2'-OMe-U: 5, Bn-dU: 4,12,14,18,21,22,23,27,30,34,39,41], Table 10 ratio 0.10) is reported as 56.4.
“GAAUTCAAAAGTGTCGGTGATTTGCCTCGTCGCTCCAATGT [UMe 1]” gave a Kd (2'-OMe-U at 4 [2'-OMe-U: 4, Bn-dU: 5,12,14,18,21,22,23,27,30,34,39,41], Table 10 ratio 0.13) of 42.6.
